Source: patent US20140154245A1 (L AND K BIOMED, published 2014)
Values belong to the binder of their own block, whether it stands above or below them.

How the values were obtained:
[1] = target: T1, human EMAPII (endothelial monocyte activating polypeptide II) antigen (human, UniProt Q12904 1-312, limits assumed); assay: ELISA, EMAPII antigen coated on the plate, antibody titrated
T1 construct: also called EMAPII antigen; p43
T1 sequence: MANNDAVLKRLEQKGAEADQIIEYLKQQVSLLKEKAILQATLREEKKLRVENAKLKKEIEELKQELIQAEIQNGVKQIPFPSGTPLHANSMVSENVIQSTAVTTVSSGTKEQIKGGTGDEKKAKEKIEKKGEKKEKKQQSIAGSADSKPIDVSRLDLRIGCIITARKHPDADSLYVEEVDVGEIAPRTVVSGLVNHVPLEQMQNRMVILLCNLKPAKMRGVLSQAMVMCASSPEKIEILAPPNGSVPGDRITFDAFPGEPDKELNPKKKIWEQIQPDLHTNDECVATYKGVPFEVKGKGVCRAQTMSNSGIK
Protocol: (§1) Wells of a 96 well plate were coated with 100 μl of different concentrations of EMAPII antigen (10 μg/ml, 5 μg/ml, 2.5 μg/ml, 1 μg/ml, 0.5 μg/ml, 0.2 μg/ml) and were incubated at 37° C. for 2 hours. The coated antigens were blocked using BSA and washed with washing buffer. Dilutions of the parental murine anti-EMAPII antibody (starting at 1 μg/ml, two-fold serial dilution) were added to the antigens and incubated for 2 hours. The mixture was washed three times and anti-IgG-HRP antibody was added to the mixture and incubated for 1 hour. The mixture was washed with washing buffer three times. The substrate was added to the mixture and maintained for 30 minutes. After developing, stop solution was added and detected absorbance at the wavelength of 450 nm (FIG. 12). Bound antibody was detected with anti-mouse IgG-HRP conjugate. A concentration of 2.5 μg/ml antigen was selected for testing the chimeric clones.
(§2) The ability of mouse/human chimeric antibody BAP015_{—}1 to bind to the EMAPII antigen was determined by using the ELISA protocol provided by StemScience and the optimized conditions determined as described above. Bound chimeric antibody was detected with anti-human-IgG HRP conjugate (FIG. 13). All 3 clones tested bind to EMAPII. The binding curves of all 3 clones are very similar to each other and to the murine antibody.

[2] = target: T1, human EMAPII (endothelial monocyte …); assay: ELISA, EMAPII antigen coated on the plate, antibody titrated (3 clones)
Protocol: as §1, §2

- EC50 [1]: 0.0209 µg/mL
B1: mouse anti-EMAPII monoclonal antibody (antibody, V domains shown)
VH: QVQLQQSGAELARPGASVKMSCKASGYTFTSYTMHWVKQRPGQGLEWIGYINPSSGFTNYNQKFKDKATLTADKSSSTAYMQLSSLTSEDSAVYYCASRFAYWGQG
VL: DIVMTQSHKFMSTSVGDRVSITCKASQDVSTAVAWYQQKPGQSPKLLIFSASYRYTGVPDRFTGSGSGTDFTFTISSVQAEDLAVYYCQQHYSTPYTFGQG
notes: Mouse IgG1 with kappa light chain, from a hybridoma; also called murine EMAPII mAb; parental murine anti-EMAPII antibody

- EC50 [2]: 0.0215 to 0.0302 µg/mL
B2: mouse/human chimeric antibody BAP015-1 (antibody, V domains shown)
VH: B1 VH
VL: B1 VL
notes: VL is fused to a human kappa constant region and VH to a human IgG1 constant region (full-length IgG1, from CHO-S supernatant); Three plasmid clones of the same construct were tested; they are treated as one molecule; also called chimeric anti-EMAPII antibody; chimeric clone BAP015-1
